From PMC10362037
pKd: −log10 of the molar value.

Target: SARS-CoV-2 Omicron (B.1.1.529) Spike S1 (Sino Biological, 40591-V08H41) (SARS-CoV-2)
Test: SPR

## Human integrin αvβ3 (R&D Systems, 3817-AV-050) (from UniProt P06756 31-1048; P05106 27-718) (complex)
  pKd: 7.16
